Results as given in patent publication US10865390B2, “Alcohol dehydrogenase mutant and application thereof in synthesis of diaryl chiral alcohols” (Jiangnan University, priority 2018, dated 2020).

What was measured:
Format in all cases: biochemical
[1] = Stereoselectivity analysis of CPMK reduction (chiral liquid chromatography, Table 1); details: product CPMA from CPMK
Method: (§1) In an embodiment of the present disclosure, the (R)- and (S)-CPMA is chromatographed by taking 100 μL reaction solution, adding 500 μL ethyl acetate, shaking for 1-2 min, centrifuging at 12,000 rpm for 2-5 min, placing a supernatant into a centrifuge tube, and after an organic phase is naturally volatilized completely, adding 500 μL chromatographic pure ethanol for chiral liquid chromatography of a conversion rate and an ee value. The specific chromatographic conditions are as follows: Daicel Chiralcel OB-H (5 μm, 250 mm×4.6 mm) liquid chromatography column, mobile phases are n-hexane: ethanol: ethanolamine (90:10:0.01, v/v/v), the flow rate is 1 mL/min, the column temperature is 30° C., the UV detection wavelength is 254 nm, the injection volume is 10 μL, and the retention time for (R)-CPMA and that for (S)-CPMA are 11.14 min and 12.34 min respectively.
Method for determining optical purity ee:
As: molar concentration of (S)-CPMA obtained by liquid chromatography; and AR: molar concentration of (R)-CPMA obtained by liquid chromatography.
The activity of KpADH at different substrate concentrations and coenzyme concentrations was determined, and a double reciprocal curve was made based on the reciprocal of activity and substrate concentration to calculate kinetic parameters.

[2] = Substrate specificity: reduction of prochiral carbonyl compound (Table 2)
Description: The reduction on prochiral carbonyl compounds by the alcohol dehydrogenase mutants obtained in Example 2 was studied, and the studied prochiral carbonyl compounds include (4-chlorophenyl)-(pyridin-2-yl)-methanone (CPMK), phenyl-(pyridin-2-yl)-methanone, (4-chlorophenyl)-(phenyl)-methanone, (4-bromophenyl)-(phenyl)-methanone, (4-fluorophenyl)-(pyridin-2-yl)-methanone, (4-methoxyphenyl)-(phenyl)-methanone, acetophenone, 4-chloroacetophenone and 2-(4-chlorophenyl)acetyl chloride.

[3] = 20 mL biocatalytic system: asymmetric reduction of CPMK
Method: as §1
A 20 mL biocatalytic system was established: 100 mM potassium phosphate buffer (pH 7.0), and the alcohol dehydrogenase mutants M6 and M7 obtained in Example 2 as well as wild KpADH 10 g/L, CPMK 100 mM, 200 mM and 500 mM were added (substrate added in batches). […]

B1: M2: alcohol dehydrogenase mutant: valine for glutamic acid at position 214 (E214V) of SEQ ID No. 2 (protein)
chain: MSVLISGASGYIAKHIVRVLLEQNYKVIGTVRSQDKADKLLKQYNNPNLSYEIVPEIANLDAFDDIFKKHGKEIKYVIHAASPVNFGAKDLEKDLVIPAINGTKNMFEAIKKYAPDTVERVVMTASYASIMTPHRQNDPTLTLDEETWNPVTEENAYENVFTAYCASKTFAEKEAWKFVKENSDAVKFKLTTIHPSFVFGPQNFDEDVTKKLNVTCEIINGLLHAPFDTKVEKTHFSQFIDVRDVAKTHVLGFQKDELINQRLLLCNGAFSQQDIVNVFNEDFPELKGQFPPEDKDTDLNKGVTGCKIDNEKTKKLLAFEFTPFHKTIHDTVYQILHKEGRV
modifications: Protein translated from synthetic DNA
ee [1]: 92.3%
ee value of product ([2]; substrate drawing 1 (CPMK)): 92.3%
ee value of product ([2]; substrate drawing 2): 30.6%
ee value of product ([2]; substrate drawing 3): 87.9%
ee value of product ([2]; substrate drawing 4): 95.5%
ee value of product ([2]; substrate drawing 5): 0.56%
ee value of product ([2]; substrate drawing 6): 23.2%
ee value of product ([2]; substrate drawing 7): 45.3%
ee value of product ([2]; substrate drawing 8): 94.9%
ee value of product ([2]; substrate drawing 9): 91.2%

B2: M5: alcohol dehydrogenase mutant E214G, S237C, Q136N, S196G of SEQ ID No. 2 (protein)
chain: MSVLISGASGYIAKHIVRVLLEQNYKVIGTVRSQDKADKLLKQYNNPNLSYEIVPEIANLDAFDDIFKKHGKEIKYVIHAASPVNFGAKDLEKDLVIPAINGTKNMFEAIKKYAPDTVERVVMTASYASIMTPHRNNDPTLTLDEETWNPVTEENAYENVFTAYCASKTFAEKEAWKFVKENSDAVKFKLTTIHPGFVFGPQNFDEDVTKKLNGTCEIINGLLHAPFDTKVEKTHFCQFIDVRDVAKTHVLGFQKDELINQRLLLCNGAFSQQDIVNVFNEDFPELKGQFPPEDKDTDLNKGVTGCKIDNEKTKKLLAFEFTPFHKTIHDTVYQILHKEGRV
modifications: Protein translated from synthetic DNA
ee [1]: 93.5%
ee value of product ([2]; substrate drawing 1 (CPMK)): 87.7%
ee value of product ([2]; substrate drawing 2): 15.5%
ee value of product ([2]; substrate drawing 3): 62.0%
ee value of product ([2]; substrate drawing 4): 70.9%
ee value of product ([2]; substrate drawing 5): 59.5%
ee value of product ([2]; substrate drawing 6): 81.7%
ee value of product ([2]; substrate drawing 7): 95.6%
ee value of product ([2]; substrate drawing 8): 49.1%
ee value of product ([2]; substrate drawing 9): 99.9%

B3: M7: alcohol dehydrogenase mutant E214V, T215S of SEQ ID No. 2 (protein)
chain: MSVLISGASGYIAKHIVRVLLEQNYKVIGTVRSQDKADKLLKQYNNPNLSYEIVPEIANLDAFDDIFKKHGKEIKYVIHAASPVNFGAKDLEKDLVIPAINGTKNMFEAIKKYAPDTVERVVMTASYASIMTPHRQNDPTLTLDEETWNPVTEENAYENVFTAYCASKTFAEKEAWKFVKENSDAVKFKLTTIHPSFVFGPQNFDEDVTKKLNVSCEIINGLLHAPFDTKVEKTHFSQFIDVRDVAKTHVLGFQKDELINQRLLLCNGAFSQQDIVNVFNEDFPELKGQFPPEDKDTDLNKGVTGCKIDNEKTKKLLAFEFTPFHKTIHDTVYQILHKEGRV
modifications: Protein translated from synthetic DNA
ee value of final reduction product ([3]; 20 mL biocatalytic system, enzyme 10 g/L, 30° C., pH 7.5): 99.7%
Conversion rate ([3]; CPMK 100 mM, reaction time 1 h): 34.0%
Conversion rate ([3]; CPMK 100 mM, reaction time 2 h): 40.8%
Conversion rate ([3]; CPMK 100 mM, reaction time 3 h): 41.5%
Conversion rate ([3]; CPMK 100 mM, reaction time 4 h): 46.5%
Conversion rate ([3]; CPMK 100 mM, reaction time 6 h): 58.7%
Conversion rate ([3]; CPMK 100 mM, reaction time 8 h): 69.0%
Conversion rate ([3]; CPMK 100 mM, reaction time 12 h): 99.7%
Conversion rate ([3]; CPMK 100 mM, reaction time 24 h): 99.7%
Conversion rate ([3]; CPMK 200 mM, reaction time 1 h): 20.9%
Conversion rate ([3]; CPMK 200 mM, reaction time 2 h): 33.1%
Conversion rate ([3]; CPMK 200 mM, reaction time 3 h): 48.1%
Conversion rate ([3]; CPMK 200 mM, reaction time 4 h): 55.2%
Conversion rate ([3]; CPMK 200 mM, reaction time 6 h): 77.4%
Conversion rate ([3]; CPMK 200 mM, reaction time 8 h): 86.3%
Conversion rate ([3]; CPMK 200 mM, reaction time 12 h): 92.2%
Conversion rate ([3]; CPMK 200 mM, reaction time 24 h): 99.7%
Conversion rate ([3]; CPMK 500 mM, reaction time 1 h): 10.8%
Conversion rate ([3]; CPMK 500 mM, reaction time 2 h): 21.1%
Conversion rate ([3]; CPMK 500 mM, reaction time 3 h): 38.7%
Conversion rate ([3]; CPMK 500 mM, reaction time 4 h): 43.2%
Conversion rate ([3]; CPMK 500 mM, reaction time 6 h): 62.1%
Conversion rate ([3]; CPMK 500 mM, reaction time 8 h): 70.7%
Conversion rate ([3]; CPMK 500 mM, reaction time 12 h): 89.9%
Conversion rate ([3]; CPMK 500 mM, reaction time 24 h): 99.4%
time required to achieve a conversion rate close to 99.9% ([3]; CPMK concentration 200 mM): 24 h
ee value of product ([2]; substrate drawing 2): 11.9%
ee value of product ([2]; substrate drawing 3): 99.4%
ee value of product ([2]; substrate drawing 5): 9.22%
ee value of product ([2]; substrate drawing 6): 45.7%
ee value of product ([2]; substrate drawing 7): 51.3%
ee value of product ([2]; substrate drawing 8): 95.1%
ee value of product ([2]; substrate drawing 9): 77.5%

B4: M4: alcohol dehydrogenase mutant E214G, S237C, Q136N of SEQ ID No. 2 (protein)
chain: MSVLISGASGYIAKHIVRVLLEQNYKVIGTVRSQDKADKLLKQYNNPNLSYEIVPEIANLDAFDDIFKKHGKEIKYVIHAASPVNFGAKDLEKDLVIPAINGTKNMFEAIKKYAPDTVERVVMTASYASIMTPHRNNDPTLTLDEETWNPVTEENAYENVFTAYCASKTFAEKEAWKFVKENSDAVKFKLTTIHPSFVFGPQNFDEDVTKKLNGTCEIINGLLHAPFDTKVEKTHFCQFIDVRDVAKTHVLGFQKDELINQRLLLCNGAFSQQDIVNVFNEDFPELKGQFPPEDKDTDLNKGVTGCKIDNEKTKKLLAFEFTPFHKTIHDTVYQILHKEGRV
modifications: Protein translated from synthetic DNA
ee [1]: 88.0%
ee value of product ([2]; substrate drawing 1 (CPMK)): 80.6%
ee value of product ([2]; substrate drawing 2): 20.7%
ee value of product ([2]; substrate drawing 3): 38.6%
ee value of product ([2]; substrate drawing 4): 66.5%
ee value of product ([2]; substrate drawing 5): 49.1%
ee value of product ([2]; substrate drawing 6): 82.6%
ee value of product ([2]; substrate drawing 7): 91.5%
ee value of product ([2]; substrate drawing 8): 57.7%
ee value of product ([2]; substrate drawing 9): 99.3%

B5: M1: alcohol dehydrogenase mutant: glycine for glutamic acid at position 214 (E214G) of SEQ ID No. 2 (protein)
chain: MSVLISGASGYIAKHIVRVLLEQNYKVIGTVRSQDKADKLLKQYNNPNLSYEIVPEIANLDAFDDIFKKHGKEIKYVIHAASPVNFGAKDLEKDLVIPAINGTKNMFEAIKKYAPDTVERVVMTASYASIMTPHRQNDPTLTLDEETWNPVTEENAYENVFTAYCASKTFAEKEAWKFVKENSDAVKFKLTTIHPSFVFGPQNFDEDVTKKLNGTCEIINGLLHAPFDTKVEKTHFSQFIDVRDVAKTHVLGFQKDELINQRLLLCNGAFSQQDIVNVFNEDFPELKGQFPPEDKDTDLNKGVTGCKIDNEKTKKLLAFEFTPFHKTIHDTVYQILHKEGRV
modifications: Protein translated from synthetic DNA
ee [1]: 3.29%
ee value of product ([2]; substrate drawing 1 (CPMK)): 24.2%
ee value of product ([2]; substrate drawing 2): 41.0%
ee value of product ([2]; substrate drawing 3): 63.2%
ee value of product ([2]; substrate drawing 4): 49.3%
ee value of product ([2]; substrate drawing 5): 7.51%
ee value of product ([2]; substrate drawing 6): 42.7%
ee value of product ([2]; substrate drawing 7): 68.5%
ee value of product ([2]; substrate drawing 8): 86.3%
ee value of product ([2]; substrate drawing 9): 94.5%

B6: M3: alcohol dehydrogenase mutant E214G, S237C of SEQ ID No. 2 (protein)
chain: MSVLISGASGYIAKHIVRVLLEQNYKVIGTVRSQDKADKLLKQYNNPNLSYEIVPEIANLDAFDDIFKKHGKEIKYVIHAASPVNFGAKDLEKDLVIPAINGTKNMFEAIKKYAPDTVERVVMTASYASIMTPHRQNDPTLTLDEETWNPVTEENAYENVFTAYCASKTFAEKEAWKFVKENSDAVKFKLTTIHPSFVFGPQNFDEDVTKKLNGTCEIINGLLHAPFDTKVEKTHFCQFIDVRDVAKTHVLGFQKDELINQRLLLCNGAFSQQDIVNVFNEDFPELKGQFPPEDKDTDLNKGVTGCKIDNEKTKKLLAFEFTPFHKTIHDTVYQILHKEGRV
modifications: Protein translated from synthetic DNA
ee [1]: 51.8%
ee value of product ([2]; substrate drawing 1 (CPMK)): 65.4%
ee value of product ([2]; substrate drawing 2): 36.5%
ee value of product ([2]; substrate drawing 3): 33.2%
ee value of product ([2]; substrate drawing 4): 63.3%
ee value of product ([2]; substrate drawing 5): 45.6%
ee value of product ([2]; substrate drawing 6): 80.6%
ee value of product ([2]; substrate drawing 7): 95.3%
ee value of product ([2]; substrate drawing 8): 88.9%
ee value of product ([2]; substrate drawing 9): 99.8%
